Experiments:
[1] = target: Rim4-FLAG (S. cerevisiae) (UniProt P38741); test: mass photometry
recombinant Rim4-6×His = target: T1, recombinant Rim4-6×His (S. cerevisiae, UniProt P38741 1-713); test: pull-down
T1 sequence (looked up): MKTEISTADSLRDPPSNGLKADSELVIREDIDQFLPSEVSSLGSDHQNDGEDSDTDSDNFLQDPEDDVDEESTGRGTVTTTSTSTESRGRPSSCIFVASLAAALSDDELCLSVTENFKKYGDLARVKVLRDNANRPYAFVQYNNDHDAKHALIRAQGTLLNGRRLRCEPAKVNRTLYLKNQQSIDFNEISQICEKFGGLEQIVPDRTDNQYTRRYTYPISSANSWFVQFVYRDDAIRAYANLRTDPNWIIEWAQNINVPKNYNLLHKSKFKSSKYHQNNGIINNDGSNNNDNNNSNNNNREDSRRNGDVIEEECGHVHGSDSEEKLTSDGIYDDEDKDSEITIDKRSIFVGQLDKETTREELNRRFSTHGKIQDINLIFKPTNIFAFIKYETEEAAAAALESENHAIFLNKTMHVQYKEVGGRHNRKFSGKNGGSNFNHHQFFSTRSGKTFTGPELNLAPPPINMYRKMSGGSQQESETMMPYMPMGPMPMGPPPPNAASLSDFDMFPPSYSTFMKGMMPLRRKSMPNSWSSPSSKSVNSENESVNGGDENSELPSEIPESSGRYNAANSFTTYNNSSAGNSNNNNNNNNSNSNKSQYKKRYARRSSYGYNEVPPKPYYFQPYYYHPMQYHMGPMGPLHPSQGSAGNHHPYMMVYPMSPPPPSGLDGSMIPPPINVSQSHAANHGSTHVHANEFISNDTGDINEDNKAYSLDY

recombinant Rim4-EGFP = target: T2, recombinant Rim4-EGFP (S. cerevisiae, UniProt P38741 1-713); test: pull-down
T2 sequence (looked up): T1 sequence (looked up)

Bmh2 = target: T3, Bmh2 (S. cerevisiae (endogenous in meiotic …, UniProt P34730 1-273)); test: mass photometry
T3 sequence (looked up): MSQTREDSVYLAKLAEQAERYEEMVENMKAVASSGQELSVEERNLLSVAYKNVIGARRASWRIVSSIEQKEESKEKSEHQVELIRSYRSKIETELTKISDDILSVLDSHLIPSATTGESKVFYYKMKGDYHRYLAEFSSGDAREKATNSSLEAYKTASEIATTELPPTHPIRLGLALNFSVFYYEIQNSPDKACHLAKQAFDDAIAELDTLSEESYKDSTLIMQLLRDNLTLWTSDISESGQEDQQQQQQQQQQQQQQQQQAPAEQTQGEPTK

“Bmh2 (from UniProt P34730 1-273) (natural protein)” was tested, and the stoichiometry N [1] was 1.

B1: recombinant Cdc14-FLAG (enzyme, S. cerevisiae, UniProt Q00684 1-551, looked up)
chain: MRRSVYLDNTIEFLRGRVYLGAYDYTPEDTDELVFFTVEDAIFYNSFHLDFGPMNIGHLYRFAVIFHEILNDPENANKAVVFYSSASTRQRANAACMLCCYMILVQAWTPHQVLQPLAQVDPPFMPFRDAGYSNADFEITIQDVVYGVWRAKEKGLIDLHSFNLESYEKYEHVEFGDFNVLTPDFIAFASPQEDHPKGYLATKSSHLNQPFKSVLNFFANNNVQLVVRLNSHLYNKKHFEDIGIQHLDLIFEDGTCPDLSIVKNFVGAAETIIKRGGKIAVHCKAGLGRTGCLIGAHLIYTYGFTANECIGFLRFIRPGMVVGPQQHWLYLHQNDFREWKYTTRISLKPSEAIGGLYPLISLEEYRLQKKKLKDDKRVAQNNIEGELRDLTMTPPSNGHGALSARNSSQPSTANNGSNSFKSSAVPQTSPGQPRKGQNGSNTIEDINNNRNPTSHANRKVVIESNNSDDESMQDTNGTSNHYPKVSRKKNDISSASSSRMEDNEPSATNINNAADDTILRQLLPKNRRVTSGRRTTSAAGGIRKISGSIKK
B1: binds (recombinant Rim4-6×His); binds (recombinant Rim4-EGFP).

B2: Bmh1 (natural protein, UniProt P29311 1-267, looked up)
chain: MSTSREDSVYLAKLAEQAERYEEMVENMKTVASSGQELSVEERNLLSVAYKNVIGARRASWRIVSSIEQKEESKEKSEHQVELICSYRSKIETELTKISDDILSVLDSHLIPSATTGESKVFYYKMKGDYHRYLAEFSSGDAREKATNASLEAYKTASEIATTELPPTHPIRLGLALNFSVFYYEIQNSPDKACHLAKQAFDDAIAELDTLSEESYKDSTLIMQLLRDNLTLWTSDMSESGQAEDQQQQQQHQQQQPPAAAEGEAPK
B2 was tested, and the stoichiometry N [1] was 1 and the “stoichiometry N” value (Bmh2) was 1.

Source: paper doi:10.1101/2022.12.22.521673 (bioRxiv, 2022)
